Assay results published in the supplement of paper PMC9732359.
± gives the uncertainty stated by the source.

Assay: protein stability index of a GFP-peptide fusion (yeast GPS) (PSI 1-4); higher = more stable; sorted into four equal gates, so the index is relative within each strain
Details: doa10∆
Procedure, shortened: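 Tiled 17-residue yeast protein peptides were fused downstream of GFP in a plasmid that also expresses Cherry, and the pooled library was carried in yeast. Mid-log cultures in leucine-free medium were sorted into four equal gates by GFP/Cherry fluorescence ratio, and plasmids from each gate were PCR-amplified and Illumina-sequenced, with reads assigned to strains by barcodes. The protein stability index for each peptide was each gate's read frequency times its gate number, summed.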

| Sequence | protein stability index |
| --- | --- |
| IWLLSYIQYLGHLPEVS [ECM29] | 1.62 ± 0.071 |

Same assay, conditions: pdr5∆

| Sequence | protein stability index |
| --- | --- |
| IKNLPADVSKLMYSITF [SRB2] | 2.95 ± 0.046 |
| IKNVQDLLILTRSIKEK [SRB6] | 1.31 ± 0.13 |
| IKSIIEQRKQKLSKILP [SMC3] | 2.7 ± 0.091 |
| IKTVVLVPQLGHVGSVQ [PRP8] | 2.47 ± 0.049 |
| IKVEGAVGNLGNAVTVT [RPL22A] | 3.18 ± 0.13 |
| IKVWTIKGQCLATLLGH [ASC1] | 1.59 ± 0.099 |
| ILADEMGLGKTLQTISF [ISW2] | 3.06 ± 0.066 |
| ILDINVSSSKNKKSEEN [SWP82] | 3.21 ± 0.083 |
| ILDKIFYGVLDQGNGWL [RPN6] | 2.65 ± 0.069 |
| ILEVGALASIQTFNFDS [RPN12] | 2.65 ± 0.18 |
| ILGELKRVKSYMDKAKQ [LRP1] | 2.35 ± 0.082 |
| ILKDLIYRGVLNDENSD [SMC1] | 2.18 ± 0.076 |
| ILLRYHHNDISNDSQSH [YCG1] | 1.28 ± 0.13 |
| ILQQRSKINSTELLDYA [MED4] | 2.61 ± 0.081 |
| ILRKELSEEKEVIFTDV [MCD1] | 3.02 ± 0.23 |
| ILSLATEGCIGLSQTEA [MCD1] | 2.49 ± 0.068 |
| ILSQQFDKIIKIREDHI [SRB8] | 3.05 ± 0.07 |
| ILTPESQLKKTKAQQKT [RPL7B] | 2.89 ± 0.11 |
| ILTREVQNSTLAQLTSK [RPS1B] | 2.71 ± 0.055 |
| ILVDSLTGNQLPTPTPT [SWI1] | 2.76 ± 0.073 |
| IMATNRLDILDPALLRP [RPT6] | 3.13 ± 0.092 |
| IMDELLSSIAERVRNFA [DIB1] | 2.27 ± 0.086 |
| IMKIGGIKLQMQNSKVE [SMC4] | 1.82 ± 0.1 |
| IMKNKDFILSLLHHVSE [YJL039C/NUP192] | 2.35 ± 0.099 |
| IMNVLSEGFEPTFSTHA [PRP8] | 2.94 ± 0.075 |
| INGINWRFHTPQKYVLH [SIN4] | 1.92 ± 0.052 |
| INIQSFKDVEHISFNFS [BRR2] | 2.79 ± 0.13 |

| Sequence | protein stability index |
| --- | --- |
| INKIVEILTNQQRGITY [YGR119C/NUP57] | 1.99 ± 0.12 |
| INKYESSPSHIELVVTE [RPL17A] | 2.56 ± 0.051 |
| INNNINIPQQQQMQPPN [GAL11] | 2.87 ± 0.073 |
| INQINEAHPTKVKNFGV [RPL20A] | 2.93 ± 0.049 |
| INTLNGGSSDTADKIRI [GAL11] | 2.02 ± 0.088 |
| IPAAGNNRSVSMQTIAE [SRB5] | 3.12 ± 0.087 |
| IPAGIYWYWWKNGNEYN [QCR8] | 1.69 ± 0.053 |
| IPATIFDKVIYHLHPTF [TAF14] | 2.8 ± 0.068 |
| IPHDLNFLQESYEVEHV [TAF14] | 3.33 ± 0.087 |
| IPKQLLDDEKIFSQTTN [YJL039C/NUP192] | 2.77 ± 0.051 |
| IPMSKTIKDLVGGKSTV [FAS2] | 2.8 ± 0.089 |
| IPSSKIDDFTTRLWGSV [SNU114] | 3.05 ± 0.14 |
| IPSSYIKRTDEGGEAEF [ARP7] | 3.14 ± 0.1 |
| IPTNPVDNENNKPAIKE [SWI3] | 3.1 ± 0.083 |
| IPVKLLNEAQGHIVSLE [SMD3] | 3.42 ± 0.16 |
| IQELEDQRDELLEQKKS [ITC1] | 3.11 ± 0.055 |
| IQIMANIDQEGSKQADR [PGD1] | 3.11 ± 0.064 |
| IQKEEEPENNTVIEGVK [SWI3] | 3.06 ± 0.072 |
| IQNQSPQFNSPYDSNNS [SWI1] | 3 ± 0.053 |
| IQRETLLPTNNGQPLNQ [GRR1] | 2.91 ± 0.071 |
| IRCHREDCDLVIMALML [POP5] | 2.65 ± 0.064 |
| IRDNKLVSEKIINSTAL [RPC82] | 3.24 ± 0.12 |
| IRDSGDRIDLRYSKRAG [RPO21] | 3.34 ± 0.23 |
| IREKVAKQALDLYHFAL [SNF2] | 2.64 ± 0.098 |
| IRGNLMGKRVDFSARTV [RPO21] | 2.76 ± 0.24 |
| IRINDEPILGQITLTFI [YML103C/NUP188] | 2.64 ± 0.05 |
| IRQYALATAHIYLSRFL [SSN8] | 1.34 ± 0.036 |

| Sequence | protein stability index |
| --- | --- |
| IRRLRVLRRLLAKYRDA [RPL19A] | 1.41 ± 0.058 |
| IRRTFNIVNDFTPEEEA [SKP1] | 3.28 ± 0.05 |
| IRSVALNDSNVKSFKPH [RRP42] | 3.23 ± 0.17 |
| ISAKDMGQGLCNNINKG [BRR2] | 3.25 ± 0.22 |
| ISALTQTEIKDIILGQN [PRP8] | 2.51 ± 0.061 |
| ISAPSMEDEILSLGMDF [BRN1] | 3.23 ± 0.05 |
| ISEINFLHESSFDSIDH [CSI1] | 2.95 ± 0.06 |
| ISEKDLVPKRCLFESLS [RPO31] | 3.38 ± 0.15 |
| ISEVMEDRNQRIKEMYW [FAS1] | 3.3 ± 0.17 |
| ISGYKKFSSTSRYMQYN [RPT1] | 1.59 ± 0.15 |
| ISIPKTCDEIQNFENDF [REC8] | 2.92 ± 0.068 |
| ISIYNMLPPKSVKFTHI [SSN2] | 1.76 ± 0.057 |
| ISKHSKQAIYTRAAASE [RPS25B] | 2.73 ± 0.048 |
| ISKLFLRGDSVIVVLKT [SMD2] | 2.89 ± 0.2 |
| ISLAVEGEPVNSPNYFV [COR1] | 2.43 ± 0.094 |
| ISLSVHTLALEFVNGGK [RRP46] | 2.79 ± 0.068 |
| ISMILRNISFSDNNSRI [SWI1] | 2.86 ± 0.059 |
| ISNKDVIFKIRDRTSGQ [SRB4] | 3.02 ± 0.13 |
| ISNVIKPNQTIMVLDAS [SRP54] | 2.56 ± 0.053 |
| ISPDPNLSIDEVAVPDR [RPO31] | 2.76 ± 0.084 |
| ISPSAPSKDSFTKYKPA [YAR002W/NUP60] | 2.9 ± 0.069 |
| ISTACPRLDDVVVDTVE [SMC4] | 3.43 ± 0.094 |
| ISTAKAWGALITTFVKR [YML103C/NUP188] | 2.22 ± 0.051 |
| ISTSFCFICLLHLANEH [BRN1] | 1.21 ± 0.13 |
| ISVARKIYDAFPQTAML [DIS3] | 2.4 ± 0.072 |
| ITARSAFVEFGASVIAG [SWP82] | 2.53 ± 0.085 |
| ITASTLLYADSLTAEAM [CYT1] | 2.31 ± 0.059 |

| Sequence | protein stability index |
| --- | --- |
| ITHAHSLSNPNSTATMQ [PGD1] | 2.44 ± 0.054 |
| ITHRDLHYDKDYNLRIY [SSN8] | 2.1 ± 0.041 |
| ITHTENYNDLIVNYEDL [BRN1] | 2.94 ± 0.12 |
| ITIFSPEGRLYQVEYAF [SCL1] | 2.6 ± 0.11 |
| ITKVTENLFSKEEVCQG [YMR129W/POM152] | 2.77 ± 0.092 |
| ITLALADAGIELVDMAG [MTR3] | 2.43 ± 0.065 |
| ITLRGVENIERVVMMKY [RPO21] | 2.28 ± 0.096 |
| ITSFLLSKMENVNLDDY [NAS6] | 1.54 ± 0.052 |
| ITSIMDDLALPYQHPPN [ITC1] | 3.34 ± 0.076 |
| ITSLQDSSSQCIVDFTN [YMR129W/POM152] | 2.92 ± 0.066 |
| ITVHAPLLPIVEELMKK [SNU114] | 2.55 ± 0.054 |
| ITVRYWLNGKMDSKGKI [RGR1] | 3.51 ± 0.15 |
| IVALTNAKDKERLQLLE [SMC3] | 3.29 ± 0.13 |
| IVERETNWIIYPLWVMA [CSN12] | 3.42 ± 0.24 |
| IVGKKIQEFLVVIEKRR [GRR1] | 2.9 ± 0.098 |
| IVISLKNTMFEKSDALV [SMC1] | 2.36 ± 0.062 |
| IVKRLYEYGAVSVLLIS [BRR2] | 2.39 ± 0.055 |
| IVKTTTKQRLDAYYDLE [PRP8] | 3.28 ± 0.069 |
| IVLDEVRNKSYPVYTRL [DIS3] | 2.65 ± 0.056 |
| IVMEDHGVLQGTSQNYG [MED1] | 3.02 ± 0.067 |
| IVPGTYIQERNPSQRPQ [RPS10B] | 3.07 ± 0.045 |
| IVQAKEPNLAAQQDSTN [ECM29] | 2.88 ± 0.054 |
| IVVAMTGKDCVAIACDL [PUP3] | 1.47 ± 0.07 |
| IVVVIEIITSLSMRFQR [SRB8] | 2.71 ± 0.092 |
